Read-outs that look alike come from different tables or passages of the source.
Columns and labels:
[1] = molecular target: hPD-L1 (antigen of the Biacore assay) (human, UniProt Q9NZQ7 19-238, limits assumed); experiment: SPR (Biacore), antibody captured on anti-human Fc, antigen in flow
Protocol: A CM5 sensor chip was activated in each flow cell by 7-min injection (10 μl/min) of freshly prepared 1:1 50 mM N-hydroxysuccinimide (NHS): 200 mM 1-ethyl-3-(3-dimethylaminopropyl)-carbodiimide (EDC). Then anti-human Fc antibody (GE Healthcare) in a concentration of 10 μg/ml in 10 mM sodium acetate buffer PH 5.0 was injected onto the activated chip at 10 μl/min (HBS-EP running buffer: 10 mM HEPES, 150 mM NaCl, 3.4 mM EDTA, 0.005% surfactant P20, pH 7.4). The remaining active coupling sites were blocked by 7 min injection of 1M ethanolamine at 10 μl/min. The immobilization level of each flow cell is ˜9000RU. Antibodies were captured in FC2 by anti-human Fe IgG (GE Healthcare) to 200˜300RU. FC1 was used as the reference cell. Antigen was injected at varying concentrations after capture of antibody. The association time for antibody binding antigen is 180s. Surface Regeneration condition is 120s at 10 μl/min in Gly pH1.5. The signals with captured antibody subtracted from those without captured antibody were calculated with Biacore X100 evaluation software ver. 2.0 (Biacore).

[2] = molecular target: T1, human PD-L1 expressed on cells (human, UniProt Q9NZQ7 19-290); experiment: FACS, IFN-gamma stimulated HCC827 cells
T1 construct: whole, on cells; also called hPD-L1 expressed on HCC827; hPD-L1 on MC38/hPD-L1 cells
Protocol: Log phase IFN-γ stimulated (500U/ml for 2 days) HCC827 cells were collected and resuspended in blocking buffer (5% BSA+PBS). 2×10\hat{ }5 cells were added to each tube and then washed once with PBS (1500 rpm, 5 mins, RT). The 100 μl/tube serial diluted biotinylated PD-L1 antibodies with blocking buffer were added into corresponding tubes and incubate at 4° C. for 1 hr.

[3] = molecular target: T1, human PD-L1 expressed on cells; experiment: blocking FACS on HCC827 cells; blocked ligand: biotinylated hPD-1-N297A
Protocol: Log phase IFN-γ stimulated (500U/ml for 2 days) HCC827 cells were collected and resuspended in blocking buffer (5% BSA+PBS). 2×10\hat{ }5 cells were added to each tube and then washed once with PBS (1500 rpm, 5 mins, RT). The 100 μl/tube serial diluted PD-L1 antibodies (see FIG. 8) with blocking buffer were added into corresponding tubes and incubate at 4° C. for 1 hr. […] After washing for three times with PBS, 100 μl/tube streptavidin-PE 1:200 (EBiosciences) in blocking buffer was added to each tube. The cells were incubated at 4° C. for 1 hr and then washed twice with PBS, followed by resuspending cells in 150 μl PBS for each sample. The cells were then transferred into FACS tube and the binding of the antibodies to the cells were detected with flow cytometry (ACEA Bioscience Novocyte).

[4] = molecular target: T2, Human PD-L1/CD274 with C-Fc Tag (hPD-L1-Fc) (human, UniProt Q9NZQ7 19-238); experiment: blocking ELISA on coated hPD-L1-Fc; blocked ligand: biotinylated hPD-1-N297A
T2 construct: range 19-238; ACRO Biosystem PD1-H5258, made in HEK293; also called human PD-L1-Fc; not shown: Fc fragment of human IgG1 at C-terminus
Protocol: High-binding clear polystyrene 96 well plates (Nunc) were coated with 100 μl/well of coating solution consisting of 1 μg/ml hPD-L1-Fc overnight at 4° C. Then the plates were washed once on an automatic plate washer using washing buffer (PBS+0.1% Tween 20 (Sigma)). 200 μl of blocking buffer (PBS+1% BSA+1% normal goat serum+0.05% Tween-20) was added to each well and incubated 2 hours at room temp. […] The plates were then washed 3 times using the method described above. […] After the plates were washed 3 times, 100 μl/well of a solution of 1:5000 diluted HRP conjugated Neutravidin antibody (Pierce) in dilution buffer was then added to each well of the plate. After that the ELISA plates were allowed to incubate for 60 min at RT, then the plates were washed 3 times with 250 μl/well washing buffer. Finally, 100 μl/well of TMB was added to each well and the reaction was terminated using 0.64M H₂SO₄. The plates were read on a Thermo Multiscan FC at 450 nM (see FIG. 18A to 18D).

[5] = molecular target: T3, Recombinant Human PD-L1/CD274 Protein (hPD-L1-his) (human, UniProt Q9NZQ7 19-238); experiment: ELISA, purified mouse antibody on coated hPD-L1-his
T3 construct: range 19-238; ACRO Biosystem PD1-H5229, made in HEK293; also called human PD-L1-his; hPD-L-his
Protocol: High-binding clear polystyrene 96 well plates (Nunc) were coated with 100 μl/well of a 0.5 μg/ml hPD-L1-his in high pH coating buffer and incubated overnight 4° C. Then plates were washed once on an automatic plate washer using washing buffer (PBS+0.1% Tween 20 (Sigma)). 200 μl of blocking buffer (PBS+1% BSA+1% normal goat serum+0.05% Tween-20) was added to each well and incubated 2 hours at room temp. Then add serially diluted purified antibodies with dilution buffer (PBS+1% BSA+1% normal goat serum+0.01% Tween-20) and incubate for 1 hour at RT. The plates were then washed 3 times using the method described above. 100 μl/well of a solution of HRP conjugated goat anti-mouse Fc antibody (Abcam) in dilution buffer was then added to each well of the plate. After that the ELISA plates were allowed to incubate for 60 min at RT then plates were washed 3 times with 250 μl/well washing buffer. Finally, 100 μl/well of TMB was added to each well and was terminated using 0.64M H₂SO₄. The plates were read on a Thermo Multiscan FC at 450 nM (see FIG. 3).

[6] = molecular target: T1, human PD-L1 expressed on cells; experiment: FACS, IFN-gamma stimulated HCC827 cells; remark: listed apart in the source
Protocol: Log phase IFN-γ stimulated (500U/ml for 2 days) HCC827 cells were collected and resuspended in blocking buffer (5% BSA+PBS). 2×10\hat{ }5 cells were added to each tube and then washed once with PBS (1500 rpm, 5 mins, RT). The 100 μl/tube serial diluted PD-L1 antibodies purified from hybridoma supernatant in blocking buffer were added into corresponding tubes and were incubated at 4° C. for 1 hr. The cells were then washed twice with 1 ml PBS, followed by adding 100 μl/tube of 2nd antibody (1:400 anti-mIgG (H+L)-PE, Cell signaling) in blocking buffer. The cells were incubated at 4° C. for 1 hr and then washed twice with PBS, followed by resuspending cells in 150 μl PBS for each sample. The cells were then transferred into FACS tube and the bindings of the antibodies to the cells were detected using flow cytometry (BD Accuri C6) (see FIG. 5A).

[7] = molecular target: T4, wild type human PD-L1-Fc protein (SEQ ID NO: 107) (human); experiment: ELISA on captured PD-L1-Fc, as in Example 18A
T4 construct: Extracellular human PD-L1 (amino acid 19-238) with Fc fragment of human IgG1, expressed in 293T cells and used as culture supernatant; also called WT PD-L1; wild-type PD-L1

[8] = molecular target: T5, human PD-L1-Fc mutant E58A (human); experiment: ELISA on captured PD-L1-Fc, as in Example 18A
T5 construct: Position 58 counts on native human PD-L1 (NP_054862.1); also called E58A mutant

[9] = molecular target: T6, hPD-L2-Fc (human, UniProt Q9BQ51 20-219); experiment: ELISA, plate coated with hPD-L2-Fc
T6 construct: Acrobiosystems PD2-H5251; also called human PD-L2 protein; not shown: Fc tag
T6 sequence (looked up): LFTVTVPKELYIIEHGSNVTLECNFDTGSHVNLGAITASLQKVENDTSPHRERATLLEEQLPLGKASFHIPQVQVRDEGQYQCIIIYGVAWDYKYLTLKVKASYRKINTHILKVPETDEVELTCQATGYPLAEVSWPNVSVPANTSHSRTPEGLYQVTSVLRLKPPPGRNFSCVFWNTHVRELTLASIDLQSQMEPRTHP
Protocol: Briefly, high-binding clear polystyrene 96 well plates (Nunc) were coated with 100 μl/well of a 0.5 μg/ml human PD-L1-Fc (Acrobiosystems, Cat #PD1-H5258) or 100 μl/well of a 1 μg/ml hPD-L2-Fc (Acrobiosystems, Cat #PD2-H5251), respectively, in high pH coating buffer (0.16% Na2CO3+0.3% NaHCO₃, pH 9.8) and incubated overnight at 4° C. Then the plates were washed once on an automatic plate washer using washing buffer (PBS+0.1% Tween 20 (Amresco)). 200 μl of blocking buffer (PBS+1% BSA+1% normal goat serum+0.05% Tween-20) was added to each well and incubated for 2 hours at room temp. Then add 100 μl 2 μg/ml purified PD-L1 antibodies with dilution buffer (PBS+1% BSA+1% normal goat serum+0.01% Tween-20) and incubate for 1 hour at RT. The plates were then washed 3 times with washing buffer. 100 μl/well of a solution of HRP conjugated goat anti-mouse IgG antibody (1:20000, Abcam) in dilution buffer was then added to each well of the plate. After that the ELISA plates were allowed to incubate for 60 min at RT then the plates were washed 3 times with 250 μl/well washing buffer. Finally, 100 μl/well of TMB was added to each well for 15 min and the reaction was terminated using 50 ul/well of 0.16 M/L sulfuric acid. The plates were read on a Thermo Multiscan FC at 450 nM (see FIG. 6G).

[10] = molecular target: T7, Recombinant Mouse PD-L1/CD274 Protein (mPD-L1-his) (mouse, UniProt Q9EP73 19-238); experiment: ELISA, 20 ug/ml antibody on coated mouse PD-L1 (his-tagged per text, mPD-L1-Fc per sheet title)
T7 construct: range 19-238; ACRO Biosystem PD1-M5220; also called mouse PD-L1-his
Protocol: High-binding clear polystyrene 96 well plates (Nunc) were coated with 100 μl/well of 1 μg/ml mouse PD-L1-his in high pH coating buffer and incubated overnight at 4° C. Then plates were washed once on an automatic plate washer using washing buffer (PBS+0.1% Tween 20 (Sigma)). 200 μl of blocking buffer (PBS+1% BSA+1% normal goat serum+0.05% Tween-20) was added to each well and incubated for 2 hours at room temp. Then add 20 μg/ml purified hybridoma mouse antibodies in dilution buffer (PBS+1% BSA+1% normal goat serum+0.01% Tween-20) and incubate for 1 hour at RT. The plates were then washed 3 times with 250 μl/well washing buffer. 100 μl/well of a solution of HRP conjugated goat anti-mouse Fc antibody (Abcam) in dilution buffer was then added to each well of the plate. After that the ELISA plates were allowed to incubate for 60 min at RT then plates were washed 3 times with 250 μl/well washing buffer. Finally, 100 μl/well of TMB was added to each well and the reaction was terminated using 0.64M H₂SO₄. The plates were read on a Thermo Multiscan FC at 450 nM (see FIG. 6F).

T4 sequence (chain, as listed by the source limits assumed): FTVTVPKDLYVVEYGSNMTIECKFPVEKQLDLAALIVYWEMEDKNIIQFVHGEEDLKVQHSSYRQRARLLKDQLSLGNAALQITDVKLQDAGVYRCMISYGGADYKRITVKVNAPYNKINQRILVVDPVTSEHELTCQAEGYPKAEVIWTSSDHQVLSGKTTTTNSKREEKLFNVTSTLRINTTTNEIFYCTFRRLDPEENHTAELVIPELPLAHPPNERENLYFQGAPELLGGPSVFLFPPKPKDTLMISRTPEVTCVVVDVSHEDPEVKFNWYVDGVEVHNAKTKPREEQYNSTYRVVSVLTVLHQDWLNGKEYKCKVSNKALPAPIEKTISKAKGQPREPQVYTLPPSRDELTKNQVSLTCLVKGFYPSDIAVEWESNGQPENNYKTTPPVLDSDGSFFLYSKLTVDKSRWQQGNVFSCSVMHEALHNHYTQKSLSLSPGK
Sequence of hPD-L1 (antigen of the Biacore assay) (Q9NZQ7 19-238 limits assumed): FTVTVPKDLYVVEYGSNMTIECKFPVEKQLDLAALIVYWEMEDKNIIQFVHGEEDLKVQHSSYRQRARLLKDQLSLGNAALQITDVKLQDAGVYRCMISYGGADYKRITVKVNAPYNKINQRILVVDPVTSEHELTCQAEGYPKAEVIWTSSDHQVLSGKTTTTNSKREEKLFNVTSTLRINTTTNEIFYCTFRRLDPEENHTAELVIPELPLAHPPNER
T1 sequence (Q9NZQ7 19-290): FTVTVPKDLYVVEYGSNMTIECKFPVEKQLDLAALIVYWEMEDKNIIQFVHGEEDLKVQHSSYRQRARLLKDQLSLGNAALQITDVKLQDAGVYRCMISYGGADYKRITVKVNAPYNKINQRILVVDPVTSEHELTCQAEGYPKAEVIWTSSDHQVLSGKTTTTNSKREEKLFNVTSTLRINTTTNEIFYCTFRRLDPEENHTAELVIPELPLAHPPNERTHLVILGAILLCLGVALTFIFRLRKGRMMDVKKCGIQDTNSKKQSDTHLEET
T5 sequence (chain, as listed by the source E58A E58A limits assumed): as the sequence (chain, as listed by the source limits assumed) above, with E40A counted along it
T7 sequence (Q9EP73 other isoform, or with tags, fused parts or gaps limits assumed): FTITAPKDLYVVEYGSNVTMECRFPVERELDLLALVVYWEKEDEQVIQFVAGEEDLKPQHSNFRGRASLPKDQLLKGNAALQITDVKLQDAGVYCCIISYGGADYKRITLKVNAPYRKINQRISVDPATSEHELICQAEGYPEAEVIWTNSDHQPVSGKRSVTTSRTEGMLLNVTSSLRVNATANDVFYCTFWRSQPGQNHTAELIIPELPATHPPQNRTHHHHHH
T3 sequence (Q9NZQ7 other isoform, or with tags, fused parts or gaps limits assumed): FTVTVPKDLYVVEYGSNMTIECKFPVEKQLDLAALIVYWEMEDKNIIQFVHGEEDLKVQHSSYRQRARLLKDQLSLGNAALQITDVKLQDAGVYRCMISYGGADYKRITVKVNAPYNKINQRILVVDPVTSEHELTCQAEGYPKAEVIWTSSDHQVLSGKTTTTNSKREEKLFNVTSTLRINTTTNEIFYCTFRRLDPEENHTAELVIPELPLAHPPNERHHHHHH
T2 sequence (Q9NZQ7 19-238 limits assumed): as the sequence (Q9NZQ7 19-238 limits assumed) above

B1: 4B6-H3L3 (antibody, V domains shown)
VH: QVQLVQSGAEVVKPGASVKISCKASGYVFTDYYMNWVKQAPGQGLEWIGDINPNNGGTSYNQKFQGRATVTVDKSTRTAYMELSRLRSDDTAVYYCVKWGDGPFAYWGQGTLVTVSS
VL: DIQMTQSQSSLSASVGDRVTITCQASQNVGAAVAWYQQKPGKAPKLLIYSASNRYTGVPSRFSGSGSGTDFTLTISSMQPEDIATYFCQQYSNYPTFGSGTKLGIK
notes: Humanized; also called humanized 4B6 H3L3
- Kd [1]: 6.36 nM
- koff [1]: 0.000927 s⁻¹
- kon [1]: 150000 M⁻¹ s⁻¹
- EC50 (read off the curve) [2]: ~0.1 µg/mL
- IC50 (read off the curve) [3]: ~0.1 µg/mL
- IC50 (read off the curve) [4]: ~0.06 µg/mL

B2: 23F11 (antibody, V domains shown)
VH: QVQLQQPGAELVKPGASVKLSCKASGYSFTTYWMHWVKQRPGQGLEWIGMIQPNSGGTKYNEKFKKKATLTVDKSSTTASMELSSLTSEDSAVYYCARGAGTVDYFDYWGQGSTLTVSS
VL: DIVLTHSPVSLAVSLGQRATISCRASESVDIYGNSFMHWYQQKPGQPPKLLIYRASNLESGIPARFSGSGSRTDFTLTINPVEADDVATYYCQQSTEDPYTFGGGTKLEIK
notes: also called mouse monoclonal antibody 23F11; clone 23F11
- EC50 (read off the curve) [5]: ~0.006 µg/mL
- EC50 (read off the curve) [6]: ~0.07 µg/mL
- Mean OD450 [7]: 1.71 OD450
- OD450 nM of sample-1 [7]: 1.65 OD450
- OD450 nM of sample-2 [7]: 1.76 OD450
- % of binding of Ab to E58A mutant vs. that to WT PD-L1 [8]: 9.9%
- Mean OD450 [8]: 0.338 OD450
- OD450 nM of sample-1 [8]: 0.383 OD450
- OD450 nM of sample-2 [8]: 0.292 OD450
- binding result [9]: no binding (tested: 2 ug/ml)
- binding result [10]: no binding (tested: 20 ug/ml)

B3: 4B6 (antibody, V domains shown)
VH: EVQLQQSGPELVKPGASVKISCKASGYVFTDYYMNWVKQSHGKSLEWIGDINPNNGGTSYNHKFKGKATVTVDKSSRTAYMELLSLTSEDSAVYYCVKWGDGPFAYWGQGTLVTVSA
VL: DIVMTQSQKFMSTSVGDRVSITCKASQNVGAAVAWYQQKPGQSPKLLIYSASNRYTGVPDRFTGSGSGTDFTLTISNMQSEDLADYFCQQYSNYPTFGSGTKLGIK
notes: Mouse monoclonal purified from hybridoma; also called mouse monoclonal antibody 4B6
- EC50 (read off the curve) [5]: ~0.01 µg/mL
- EC50 (read off the curve) [6]: ~0.04 µg/mL
- Mean OD450 [7]: 1.49 OD450
- OD450 nM of sample-1 [7]: 1.43 OD450
- OD450 nM of sample-2 [7]: 1.54 OD450
- % of binding of Ab to E58A mutant vs. that to WT PD-L1 [8]: 69.6%
- Mean OD450 [8]: 1.04 OD450
- OD450 nM of sample-1 [8]: 1.06 OD450
- OD450 nM of sample-2 [8]: 1.01 OD450
- binding result [9]: no binding (tested: 2 ug/ml)
- binding result [10]: no binding (tested: 20 ug/ml)

From US20210009693A1 (MABSPACE BIOSCIENCES SUZHOU, published 2021)
